From patent publication US20220119534A1 (DRAGONFLY THERAPEUTICS, published 2022) come the findings set out here.

Numbering of substitutions follows the chain as printed. Numbers in names are those of the source. Where “and” joins values, the source holds several entries; their conditions need not be identical. Equal values may be shown once. Read-outs that look alike come from different tables or passages of the source.

What is called Kd is the equilibrium constant for the complex coming apart. The kon is the rate constant with which the complex forms. A word on the koff: it is the first-order rate constant of dissociation. One may read the EC50 as the concentration needed to bring the measured effect to its halfway point. Low readings indicate a more potent agent, high ones a less potent agent.

Experiment [1] addresses T1, mFc-hNKG2D (human, UniProt P26718 73-216).
T1 construct: extracellular domain; Made in house (Dragonfly Tx); the order of tag and ECD follows the name mFc-hNKG2D; also called mFc-tagged human NKG2D; not shown: mouse Fc tag
T1 sequence (looked up): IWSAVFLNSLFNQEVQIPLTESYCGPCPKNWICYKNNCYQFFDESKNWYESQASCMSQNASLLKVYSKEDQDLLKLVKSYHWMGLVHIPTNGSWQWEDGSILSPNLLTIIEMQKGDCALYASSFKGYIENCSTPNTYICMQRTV
Kind of experiment: SPR Biacore 8K 37 C; mFc-hNKG2D captured on anti-mFc chip, TriNKET as analyte; kinetics fit.

Experiment [2] addresses T2, Human CLEC12A-His (human, UniProt Q5QGZ9 65-265).
T2 construct: Recombinant soluble protein made in house (Dragonfly Tx); The hCLEC12A spot of the HuProt array is written under this molecule as well; also called hCLEC12A-His; hCLEC12A; not shown: His tag
T2 sequence: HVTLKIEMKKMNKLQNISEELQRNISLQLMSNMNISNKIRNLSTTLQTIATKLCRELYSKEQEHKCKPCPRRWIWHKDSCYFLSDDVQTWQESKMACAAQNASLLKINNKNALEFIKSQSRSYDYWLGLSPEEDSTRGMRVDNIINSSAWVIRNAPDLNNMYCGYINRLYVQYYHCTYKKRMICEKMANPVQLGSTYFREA
As to the kind of experiment: SPR Biacore 8K 37 C; TriNKET captured on anti-hFc chip, hCLEC12A-His as analyte; 1:1 fit; after low pH hold (pH 3.3, 1.5 h), n=4.

The target of experiment [3] is T3, Human CLEC12A-His (human, UniProt Q5QGZ9 65-265).
T3 construct: Recombinant soluble protein made in house; also called hCLEC12A-His; hCLEC12A; not shown: His tag
T3 sequence: T2 sequence
As to the kind of experiment: SPR; sample after pH 5.0, 40 C, 2 weeks. In general terms: SPR reads the build-up and loss of mass on a sensor chip optically.

Experiment [4] addresses T4, mFc-hNKG2D (human, UniProt P26718 73-216).
T4 construct: extracellular domain; Recombinant mFc-tagged NKG2D dimer, made in house; also called human NKG2D; not shown: mouse Fc tag
T4 sequence (looked up): T1 sequence (looked up)
Kind of experiment: SPR; sample after pH 5.0, 40 C, 2 weeks.

Another experiment addresses T5, Human CD16a V158 (human, UniProt P08637 17-208, biotinylated).
T5 construct: Bought recombinant receptor; also called hCD16a (V158); hFcγRIIIa V158
As to the kind of experiment: SPR; sample after pH 5.0, 40 C, 2 weeks.

For experiment [5], the target named is T6, human CLEC12A on cells (HL60, PL21, Ba/F3-hCLEC12A) (human, UniProt Q5QGZ9 1-265).
T6 construct: Endogenous on the AML lines HL60 and PL21; brought into mouse Ba/F3 cells by retroviral transduction; The cell line stands under assay; also called CLL-1
T6 sequence: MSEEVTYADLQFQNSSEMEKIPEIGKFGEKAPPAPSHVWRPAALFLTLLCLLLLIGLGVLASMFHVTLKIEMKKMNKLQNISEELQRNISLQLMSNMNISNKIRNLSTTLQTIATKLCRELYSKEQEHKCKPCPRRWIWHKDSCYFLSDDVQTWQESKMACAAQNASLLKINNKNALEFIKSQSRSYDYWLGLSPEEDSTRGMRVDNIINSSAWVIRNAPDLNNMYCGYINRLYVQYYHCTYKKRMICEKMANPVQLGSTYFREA
Kind of experiment: flow cytometry, PL21 cells. Background: Flow cytometry measures light scatter and fluorescence of single cells or particles in a stream.

For experiment [6], the target named is T6, human CLEC12A on cells (HL60, PL21, …). As to the kind of experiment: flow cytometry, PL21 cells. The source holds these as a separate data set.
For experiment [7], the target named is T7, Human CD16a V158 (FcγRIIIa V158) (human, UniProt P08637 17-208, biotinylated).
T7 construct: Bought recombinant receptor; also called hCD16aV; hFcγRIIIa V158
Kind of experiment: SPR 25C, average.

Experiment [8] concerns the target T8, Human CLEC12A-His (recombinant, K244 WT) (human, UniProt Q5QGZ9 65-265).
T8 construct: Made in house (Dragonfly Tx); also called hCLEC12A; hCLEC12A-His; not shown: His tag
T8 sequence: T2 sequence
Kind of experiment: SPR, two-state fit (ka1); control sample.

A further experiment deals with T9, recombinant human FcRn (human, UniProt P55899 24-297; P61769 21-119).
T9 construct: also called hFcRn
Kind of experiment: SPR 25C, pH 6.0, steady state; pH 6.0; first replicate.

The next experiment has as its target T10, BCMA.
T10 chain: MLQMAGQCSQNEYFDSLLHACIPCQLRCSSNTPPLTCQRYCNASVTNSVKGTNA
As to the kind of experiment: SPR specificity test; unrelated recombinant antigen at up to 500 nM.

The next experiment concerns the target HER2. The experiment is described as above.
The next experiment has as its target T11, CD33.
T11 construct: recombinant protein
The description is as above.

The target in the next experiment is T12, recombinant human CD64 (human, UniProt P12314 16-288, biotinylated).
T12 construct: also called hFcγRI; hCD64
As to the kind of experiment: SPR 25C, kinetic fit, average.

In experiment [9] the target is T13, recombinant cynomolgus FcRn (cynomolgus monkey, UniProt Q8SPV9 24-297; Q8SPW0 21-119).
T13 construct: also called cFcRn; cyno FcRn
Kind of experiment: SPR 25C, pH 6.0, steady state; pH 6.0; third replicate.

For experiment [10], the target named is T14, human CLEC12A expressed on cells (human, UniProt Q5QGZ9 1-265).
T14 construct: Transduced isogenic cells or endogenous expression on AML cells; also called RMA-hCLEC12A; Ba/F3-hCLEC12A
T14 sequence: T6 sequence
As to the kind of experiment: flow cytometry, HL60.

T7 sequence (P08637 17-208 F176V limits assumed): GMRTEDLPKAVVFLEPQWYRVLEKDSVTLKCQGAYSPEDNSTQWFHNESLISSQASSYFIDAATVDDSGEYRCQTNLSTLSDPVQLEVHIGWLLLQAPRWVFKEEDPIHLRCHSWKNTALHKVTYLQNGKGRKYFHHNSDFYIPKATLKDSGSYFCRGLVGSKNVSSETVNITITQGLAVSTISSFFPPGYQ
T5 sequence (P08637 17-208 F176V limits assumed): as above
T12 sequence (P12314 16-288 limits assumed): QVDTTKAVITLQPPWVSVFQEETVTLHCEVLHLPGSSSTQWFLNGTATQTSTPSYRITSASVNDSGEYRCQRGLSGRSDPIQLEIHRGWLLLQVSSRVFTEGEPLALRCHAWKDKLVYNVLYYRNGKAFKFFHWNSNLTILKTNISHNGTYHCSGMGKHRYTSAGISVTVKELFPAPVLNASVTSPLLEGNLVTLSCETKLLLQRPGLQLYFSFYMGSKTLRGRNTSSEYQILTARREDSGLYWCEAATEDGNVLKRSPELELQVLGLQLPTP
T9 sequence (P55899 24-297 limits assumed, chain 1 of 2): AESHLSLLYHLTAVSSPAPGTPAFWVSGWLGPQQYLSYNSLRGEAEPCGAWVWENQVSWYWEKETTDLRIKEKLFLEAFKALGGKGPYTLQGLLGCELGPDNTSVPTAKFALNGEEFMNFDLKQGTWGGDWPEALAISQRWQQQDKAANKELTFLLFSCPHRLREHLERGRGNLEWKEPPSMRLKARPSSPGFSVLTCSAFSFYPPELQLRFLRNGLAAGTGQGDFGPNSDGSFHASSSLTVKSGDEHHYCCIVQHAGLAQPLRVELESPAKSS
T9 sequence (P61769 21-119 limits assumed, chain 2 of 2): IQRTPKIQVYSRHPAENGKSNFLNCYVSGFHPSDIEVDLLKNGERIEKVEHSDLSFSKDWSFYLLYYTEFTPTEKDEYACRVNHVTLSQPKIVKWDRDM
T13 sequence (Q8SPV9 24-297 limits assumed, chain 1 of 2): as the sequence (P55899 24-297 limits assumed, chain 1 of 2) above, with N39D, E44Q, G99S, S189G, S190N, L217M, S269T counted along it
T13 sequence (Q8SPW0 21-119 limits assumed, chain 2 of 2): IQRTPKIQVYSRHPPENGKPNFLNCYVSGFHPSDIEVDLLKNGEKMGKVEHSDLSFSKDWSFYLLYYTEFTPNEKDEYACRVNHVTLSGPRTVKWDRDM

B1: F3'-1602 TriNKET (bispecific antibody, human IgG1, kappa)
chain: QLQLQESGPGLVKPSETLSLTCTVSGFSLTNYGLHWIRQPPGKCLEWIGVIWSGGKTDYNPSLKSRVTISKDTSKNQFSLKLSSVQAADTAVYYCAKYDYDDSLDYWGQGTLVTVSSGGGGSGGGGSGGGGSGGGGSDIQMTQSPSSLSASVGDRVTITCHASQNINFWLSWYQQKPGKAPKLLIYEASNLHTGVPSRFSGSGSGTRFTLTISSLQPEDIATYYCQQSHSYPLTFGCGTKLEIKGSDKTHTCPPCPAPELLGGPSVFLFPPKPKDTLMISRTPEVTCVVVDVSHEDPEVKFNWYVDGVEVHNAKTKPREEQYNSTYRVVSVLTVLHQDWLNGKEYKCKVSNKALPAPIEKTISKAKGQPREPRVYTLPPCRDELTKNQVSLTCLVKGFYPSDIAVEWESNGQPENNYKTTPPVLVSDGSFTLYSKLTVDKSRWQQGNVFSCSVMHEALHNHYTQKSLSLSPG
heavy: EVQLVESGGGLVKPGGSLRLSCAASGFTFSSYSMNWVRQAPGKGLEWVSSISSSSSYIYYADSVKGRFTISRDNAKNSLYLQMNSLRAEDTAVYYCARGAPIGAAAGWFDPWGQGTLVTVSSASTKGPSVFPLAPSSKSTSGGTAALGCLVKDYFPEPVTVSWNSGALTSGVHTFPAVLQSSGLYSLSSVVTVPSSSLGTQTYICNVNHKPSNTKVDKKVEPKSCDKTHTCPPCPAPELLGGPSVFLFPPKPKDTLMISRTPEVTCVVVDVSHEDPEVKFNWYVDGVEVHNAKTKPREEQYNSTYRVVSVLTVLHQDWLNGKEYKCKVSNKALPAPIEKTISKAKGQPREPQVCTLPPSRDELTENQVSLTCLVKGFYPSDIAVEWESNGQPENNYKTTPPVLDSDGSFFLYSWLTVDKSRWQQGNVFSCSVMHEALHNHYTQKSLSLSPG
light: DIQMTQSPSSVSASVGDRVTITCRASQGISSWLAWYQQKPGKAPKLLIYAASSLQSGVPSRFSGSGSGTDFTLTISSLQPEDFATYYCQQGVSFPRTFGGGTKVEIKRTVAAPSVFIFPPSDEQLKSGTASVVCLLNNFYPREAKVQWKVDNALQSGNSQESVTEQDSKDSTYSLSSTLTLSKADYEKHKVYACEVTHQGLSSPVTKSFNRGEC
notes: Trispecific F3' format: CLEC12A scFv-Fc paired with NKG2D Fab-Fc; Stressed and control samples of the stability studies are the same molecule; also called AB0237
For B1, in the experiment with mFc-hNKG2D [1], the Kd is 703 nM and 705 nM and 745 nM and 732 nM. For the same molecule, in the experiment with Human CLEC12A-His [2], the Kd worked out at 0.644 nM and the kon is 715000 M⁻¹ s⁻¹.

B2: AB0192 TriNKET (other)
chain: EVQLVESGGGVVQPGGSLRLSCAASGFTFNAFGMHWVRQAPGKCLEWVAFISSGSTSIYYANTVKGRFTISRDNSKNTLYLQMNSLRAEDTAVYYCARDGYPTGGAMDYWGQGTSVTVSSGGGGSGGGGSGGGGSGGGGSDIQMTQSPSSLSASVGDRVTITCKASQDIYNYLSWFQQKPGKAPKPLIYRANILVSGVPSRFSGSGSGQDYTFTISSLQPEDIATYYCLQFDAFPFTFGCGTKLEIKGSDKTHTCPPCPAPELLGGPSVFLFPPKPKDTLMISRTPEVTCVVVDVSHEDPEVKFNWYVDGVEVHNAKTKPREEQYNSTYRVVSVLTVLHQDWLNGKEYKCKVSNKALPAPIEKTISKAKGQPREPRVYTLPPCRDELTKNQVSLTCLVKGFYPSDIAVEWESNGQPENNYKTTPPVLVSDGSFTLYSKLTVDKSRWQQGNVFSCSVMHEALHNHYTQKSLSLSPG
heavy: B1 heavy
light: B1 light
notes: the condition stands under assay; also called AB0192 Lot AB0192-005
In the case of B2, the Kd turned out to be 1.65 nM with Human CLEC12A-His [3], 574 nM with mFc-hNKG2D [4] and 192 nM with Human CD16a V158. The koff with Human CLEC12A-His [3] is 0.0013 s⁻¹; in the experiment with mFc-hNKG2D [4], 0.12 s⁻¹; with Human CD16a V158 it was 0.0208 s⁻¹. Further, the kon in the experiment with Human CLEC12A-His [3] stood at 787000 M⁻¹ s⁻¹; with mFc-hNKG2D [4], 210000 M⁻¹ s⁻¹; with Human CD16a V158, 108000 M⁻¹ s⁻¹. The results for the EC50 in experiment [5] and in experiment [6] were 0.43 nM and 0.37 nM, respectively. Further, the “FOB (fold over background)” value in experiment [6] was determined as 12 fold.

B3: AB0089 TriNKET (bispecific antibody, human IgG1, kappa)
chain: B1 chain with S53V, K56A, K71V, Y98G, D101G, S103T, R207D, I220F
heavy: B1 heavy
light: B1 light
notes: F3' format heterodimer of three chains; human IgG1 Fc with EW-RVT and Y349C/S354C mutations; also called AB0089 Lot AB0089-002; CLEC12A TriNKET AB0089
For the molecule B3, in experiment [7], the Kd was 333 nM, the koff worked out at 0.0277 s⁻¹ and the association rate constant (kon) was determined as 83100 M⁻¹ s⁻¹. Further, in experiment [8], the kon was 1.01e+07 M⁻¹ s⁻¹.

B4: F3'-1602 TriNKET (other)
chain: B1 chain
heavy: B1 heavy
light: B1 light
notes: CLEC12A scFv-Fc, NKG2D A49MI Fab-Fc, human IgG1 Fc; also called AB0237
In the case of B4, the Kd amounted to 1300 nM in the experiment with recombinant human FcRn, 5.2 nM with recombinant human CD64 and 1400 nM in [9]. The results for the “Response (RU)” value in the experiment with BCMA, with HER2 and with CD33 were 0.2 RU, 0.1 RU and 0.2 RU, respectively. In addition, the koff in the experiment with recombinant human CD64 amounted to 0.00027 s⁻¹. Besides, in the experiment with recombinant human CD64, the kon came to 52000 M⁻¹ s⁻¹. Moreover, the EC50 in [10] stood at 2.2 nM.
